Sequences and labels used below:
B1: Protein Smaug homolog 1 (Homo sapiens), Q9UPU9 (parent)
chain: MMFRDQVGVLAGWFKGWNECEQTVALLSLLKRVSQTQARFLQLCLEHSLADCAELHVLEREANSPGIINQWQQESKDKVISLLLTHLPLLKPGNLDAKVEYMKLLPKILAHSIEHNQHIEESRQLLSYALIHPATSLEDRSALAMWLNHLEDRTSTSFGGQNRGRSDSVDYGQTHYYHQRQNSDDKLNGWQNSRDSGICINASNWQDKSMGCENGHVPLYSSSSVPTTINTIGTSTSTILSGQAHHSPLKRSVSLTPPMNVPNQPLGHGWMSHEDLRARGPQCLPSDHAPLSPQSSVASSGSGGSEHLEDQTTARNTFQEEGSGMKDVPAWLKSLRLHKYAALFSQMTYEEMMALTECQLEAQNVTKGARHKIVISIQKLKERQNLLKSLERDIIEGGSLRIPLQELHQMILTPIKAYSSPSTTPEARRREPQAPRQPSLMGPESQSPDCKDGAAATGATATPSAGASGGLQPHQLSSCDGELAVAPLPEGDLPGQFTRVMGKVCTQLLVSRPDEENISSYLQLIDKCLIHEAFTETQKKRLLSWKQQVQKLFRSFPRKTLLDISGYRQQRNRGFGQSNSLPTAGSVGGGMGRRNPRQYQIPSRNVPSARLGLLGTSGFVSSNQRNTTATPTIMKQGRQNLWFANPGGSNSMPSRTHSSVQRTRSLPVHTSPQNMLMFQQPEFQLPVTEPDINNRLESLCLSMTEHALGDGVDRTSTI
partner: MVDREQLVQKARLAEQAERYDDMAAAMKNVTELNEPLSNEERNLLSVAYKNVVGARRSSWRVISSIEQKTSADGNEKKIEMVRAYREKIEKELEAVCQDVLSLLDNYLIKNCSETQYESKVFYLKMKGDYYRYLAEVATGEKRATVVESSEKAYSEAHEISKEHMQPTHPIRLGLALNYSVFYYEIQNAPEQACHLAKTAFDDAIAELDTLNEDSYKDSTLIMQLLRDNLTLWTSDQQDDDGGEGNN
B2: 14-3-3 protein sigma (Homo sapiens), P31947 (parent)
chain: MERASLIQKAKLAEQAERYEDMAAFMKGAVEKGEELSCEERNLLSVAYKNVVGGQRAAWRVLSSIEQKSNEEGSEEKGPEVREYREKVETELQGVCDTVLGLLDSHLIKEAGDAESRVFYLKMKGDYYRYLAEVATGDDKKRIIDSARSAYQEAMDISKKEMPPTNPIRLGLALNFSVFHYEIANSPEEAISLAKTTFDEAMADLHTLSEDSYKDSTLIMQLLRDNLTLWTADNAGEEGGEAPQEPQS
partner: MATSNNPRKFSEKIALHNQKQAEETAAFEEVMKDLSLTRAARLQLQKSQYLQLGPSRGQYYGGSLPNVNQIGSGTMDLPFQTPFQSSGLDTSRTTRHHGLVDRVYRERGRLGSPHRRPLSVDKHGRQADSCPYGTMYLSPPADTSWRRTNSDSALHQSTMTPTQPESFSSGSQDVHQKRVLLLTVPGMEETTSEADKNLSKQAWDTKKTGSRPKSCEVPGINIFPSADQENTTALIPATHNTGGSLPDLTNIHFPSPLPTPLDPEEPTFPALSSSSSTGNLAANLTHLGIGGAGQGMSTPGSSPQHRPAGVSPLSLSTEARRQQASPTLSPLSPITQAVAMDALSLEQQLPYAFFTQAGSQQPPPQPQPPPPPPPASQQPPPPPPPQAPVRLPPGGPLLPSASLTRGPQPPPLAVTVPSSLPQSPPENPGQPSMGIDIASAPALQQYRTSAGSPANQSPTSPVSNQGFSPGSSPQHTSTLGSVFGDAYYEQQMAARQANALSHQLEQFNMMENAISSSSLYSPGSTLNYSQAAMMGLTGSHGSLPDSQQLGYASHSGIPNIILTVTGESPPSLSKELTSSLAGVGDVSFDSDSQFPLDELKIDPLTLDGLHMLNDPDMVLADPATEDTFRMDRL
B3: 14-3-3 protein sigma (Homo sapiens), P31947 (parent)
chain: B2 chain
partner: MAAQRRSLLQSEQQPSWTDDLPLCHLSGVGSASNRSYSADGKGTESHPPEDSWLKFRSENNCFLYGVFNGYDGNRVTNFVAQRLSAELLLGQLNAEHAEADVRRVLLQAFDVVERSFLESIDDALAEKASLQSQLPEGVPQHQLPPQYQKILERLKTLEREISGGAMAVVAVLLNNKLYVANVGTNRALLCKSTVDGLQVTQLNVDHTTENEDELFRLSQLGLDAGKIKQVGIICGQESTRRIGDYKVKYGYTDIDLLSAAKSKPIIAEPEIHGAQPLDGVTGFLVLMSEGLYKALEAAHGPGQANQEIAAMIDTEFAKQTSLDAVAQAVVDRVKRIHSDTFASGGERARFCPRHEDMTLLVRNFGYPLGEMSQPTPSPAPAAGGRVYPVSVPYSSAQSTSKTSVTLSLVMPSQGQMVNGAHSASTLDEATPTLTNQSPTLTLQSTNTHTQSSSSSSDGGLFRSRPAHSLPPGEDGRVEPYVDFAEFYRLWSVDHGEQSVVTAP
B4: Kinesin light chain 3 (Homo sapiens), Q6P597 (parent)
chain: MSVQVAAPGSAGLGPERLSPEELVRQTRQVVQGLEALRAEHHGLAGHLAEALAGQGPAAGLEMLEEKQQVVSHSLEAIELGLGEAQVLLALSAHVGALEAEKQRLRSQARRLAQENVWLREELEETQRRLRASEESVAQLEEEKRHLEFLGQLRQYDPPAESQQSESPPRRDSLASLFPSEEEERKGPEAAGAAAAQQGGYEIPARLRTLHNLVIQYAGQGRYEVAVPLCRQALEDLERSSGHCHPDVATMLNILALVYRDQNKYKEATDLLHDALQIREQTLGPEHPAVAATLNNLAVLYGKRGRYREAEPLCQRALEIREKVLGADHPDVAKQLNNLALLCQNQGKFEDVERHYARALSIYEALGGPHDPNVAKTKNNLASAYLKQNKYQQAEELYKEILHKEDLPAPLGAPNTGTAGDAEQALRRSSSLSKIRESIRRGSEKLVSRLRGEAAAGAAGMKRAMSLNTLNVDAPRAPGTQFPSWHLDKAPRTLSASTQDLSPH
partner: B1 partner
B5: Glutamate receptor-interacting protein 1 (Homo sapiens), Q9Y3R0-3 (parent)
chain: MIAVSFKCRCQILRRLTKDESPYTKSASQTKPPDGALAVRRQSIPEEFKGSTVVELMKKEGTTLGLTVSGGIDKDGKPRVSNLRQGGIAARSDQLDVGDYIKAVNGINLAKFRHDEIISLLKNVGERVVLEVEYELPPVSVQGSSVIFRTVEVTLHKEGNTFGFVIRGGAHDDRNKSRPVVITCVRPGGPADREGTIKPGDRLLSVDGIRLLGTTHAEAMSILKQCGQEAALLIEYDVSVMDSVATASGPLLVEVAKTPGASLGVALTTSMCCNKQVIVIDKIKSASIADRCGALHVGDHILSIDGTSMEYCTLAEATQFLANTTDQVKLEILPHHQTRLALKGPDHAALVSSSFSPTSMSAYSLSSLNMGTLPRSLYSTSPRGTMMRRRLKKKDFKSSLSLASSTVGLAGQVVHTETTEVVLTADPVTGFGIQLQGSVFATETLSSPPLISYIEADSPAERCGVLQIGDRVMAINGIPTEDSTFEEASQLLRDSSITSKVTLEIEFDVAESVIPSSGTFHVKLPKKHNVELGITISSPSSRKPGDPLVISDIKKGSVAHRTGTLELGDKLLAIDNIRLDNCSMEDAVQILQQCEDLVKLKIRKDEDNSDEQESSGAIIYTVELKRYGGPLGITISGTEEPFDPIIISSLTKGGLAERTGAIHIGDRILAINSSSLKGKPLSEAIHLLQMAGETVTLKIKKQTDAQSASSPKKFPISSHLSDLGDVEEDSSPAQKPGKLSDMYPSTVPSVDSAVDSWDGSAIDTSYGTQGTSFQASGYNFNTYDWRSPKQRGSLSPVTKPRSQTYPDVGLSYEDWDRSTASGFAGAADSAETEQEENFWSQALEDLETCGQSGILRELEEKADRRVSLRNMTLLATIMSGSTMSLNHEAPTPRSQLGRQASFQERSSSRPHYSQTTRSNTLPSDVGRKSVTLRKMKQEIKEIMSPTPVELHKVTLYKDSDMEDFGFSVADGLLEKGVYVKNIRPAGPGDLGGLKPYDRLLQVNHVRTRDFDCCLVVPLIAESGNKLDLVISRNPLASQKSIDQQSLPGDWSEQNSAFFQQPSHGGNLETREPTNTL
partner: B1 partner

The variants in the first assay derive from B1. Conditions: with 1433g_human YWHAG.
For the variant S168A;S183A;S254A;S580A;S665A;T717A, the “effect of a mutation on the interaction” value is “decreasing interaction strength”.

A further assay covers variants of B2. Conditions: with crtc1_human CRTC1, Q6UUV9.
As for MERASLIQKAKLAEQAERYEDMAAFMKGAVEKGEELSCEERNLLSVAYENVVGGQEAAWRVLSSIEQKSNEEGSEEKGPEVREYREKVETELQGVCDTVLGLLDSHLIKEAGDAESRVFYLKMKGDYYRYLAEVATGDDKKRIIDSARSAYQEAMDISKKEMPPTNPIRLGLALNFSDFHYEIANSPEEAISLAKTTFDEAMADLHTLSEDSYKDSTLIMQLLRDNLTLWTADNAGEEGGEAPQEPQS [K49E;R56E;V178D], the “effect of a mutation on the interaction” value is recorded as “decreasing interaction strength”.

Another assay covers variants of B3. Conditions: with tab1_human TAB1, Q15750.
For the variant MERASLIQKAKLAEQAERYEDMAAFMKGAVEKGEELSCEERNLLSVAYENVVGGQEAAWRVLSSIEQKSNEEGSEEKGPEVREYREKVETELQGVCDTVLGLLDSHLIKEAGDAESRVFYLKMKGDYYRYLAEVATGDDKKRIIDSARSAYQEAMDISKKEMPPTNPIRLGLALNFSDFHYEIANSPEEAISLAKTTFDEAMADLHTLSEDSYKDSTLIMQLLRDNLTLWTADNAGEEGGEAPQEPQS [K49E;R56E;V178D], the “effect of a mutation on the interaction” value is reported as “decreasing interaction strength”.

The variants in a further assay derive from B4. Conditions: with 1433g_human YWHAG.
Consider S431A;S466A;S497A, for which the “effect of a mutation on the interaction” value is on record as “disrupting interaction strength”.

Variants of B5 are the subject of the next assay. Conditions: with 1433g_human YWHAG.
As for T17A;S43A;S901A;T920A, the “effect of a mutation on the interaction” value is listed as “disrupting interaction strength”.
